Assay results as given in publication PMC6422423, “Constitutively active BRS3 is a genuinely orphan GPCR in placental mammals” (PLoS Biology, 2019).
Where no end group is shown, it is not given here.

Legend:
[1] = biological target: chicken bombesin receptor subtype-3 (chicken (Gallus gallus)); assay: radioligand binding; displacement of 50 pM [125I]-Tyr42-GRP by unlabeled peptide on disaggregated transfected HEK293 cells; 1 h at 21°C; 24.5 mM HEPES pH 7.4, 98 mM NaCl; bound tracer separated by centrifugation
[2] = biological target: aardvark bombesin receptor subtype-3 (aardvark (Orycteropus afer)); assay: as above
[3] = biological target: turtle bombesin receptor subtype-3 (turtle (Chrysemys picta)); assay: as above
[4] = biological target: spotted gar bombesin receptor subtype-3 (spotted gar (Lepisosteus oculatus)); assay: as above
[5] = biological target: chicken bombesin receptor subtype-3 (chicken (Gallus gallus)); assay: radioligand binding; displacement of 50 pM [125I]-Tyr-NMB by unlabeled peptide on disaggregated transfected HEK293 cells; 1 h at 21°C; 24.5 mM HEPES pH 7.4, 98 mM NaCl; bound tracer separated by centrifugation
[6] = biological target: turtle bombesin receptor subtype-3 (turtle (Chrysemys picta)); assay: as above
[7] = biological target: spotted gar bombesin receptor subtype-3 (spotted gar (Lepisosteus oculatus)); assay: as above

Sequence of turtle bombesin receptor subtype-3 (turtle (Chrysemys picta)) (main, as listed by the source): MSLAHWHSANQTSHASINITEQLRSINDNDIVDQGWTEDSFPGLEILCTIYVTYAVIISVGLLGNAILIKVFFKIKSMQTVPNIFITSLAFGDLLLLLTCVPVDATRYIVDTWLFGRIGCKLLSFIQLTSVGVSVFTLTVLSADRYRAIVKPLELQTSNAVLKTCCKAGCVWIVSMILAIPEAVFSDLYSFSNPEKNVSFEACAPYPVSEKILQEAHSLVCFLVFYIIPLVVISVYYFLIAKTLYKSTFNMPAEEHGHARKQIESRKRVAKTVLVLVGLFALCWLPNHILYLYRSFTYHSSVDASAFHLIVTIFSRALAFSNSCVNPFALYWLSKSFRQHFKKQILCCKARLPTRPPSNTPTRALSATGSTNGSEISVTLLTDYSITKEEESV
Sequence of spotted gar bombesin receptor subtype-3 (spotted gar (Lepisosteus oculatus)) (main, as listed by the source): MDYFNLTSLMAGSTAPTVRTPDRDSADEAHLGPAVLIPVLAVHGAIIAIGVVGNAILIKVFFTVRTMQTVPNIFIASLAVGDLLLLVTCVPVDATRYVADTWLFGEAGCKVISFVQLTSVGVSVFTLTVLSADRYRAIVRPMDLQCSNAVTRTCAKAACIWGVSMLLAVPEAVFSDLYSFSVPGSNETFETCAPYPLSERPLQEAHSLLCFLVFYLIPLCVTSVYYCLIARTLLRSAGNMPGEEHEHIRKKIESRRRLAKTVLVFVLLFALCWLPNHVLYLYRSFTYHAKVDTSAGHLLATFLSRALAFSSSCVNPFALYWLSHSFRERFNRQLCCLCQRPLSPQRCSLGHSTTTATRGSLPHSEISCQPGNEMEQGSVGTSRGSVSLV
Sequence of aardvark bombesin receptor subtype-3 (aardvark (Orycteropus afer)) (P32247 other isoform, or with tags, fused parts or gaps): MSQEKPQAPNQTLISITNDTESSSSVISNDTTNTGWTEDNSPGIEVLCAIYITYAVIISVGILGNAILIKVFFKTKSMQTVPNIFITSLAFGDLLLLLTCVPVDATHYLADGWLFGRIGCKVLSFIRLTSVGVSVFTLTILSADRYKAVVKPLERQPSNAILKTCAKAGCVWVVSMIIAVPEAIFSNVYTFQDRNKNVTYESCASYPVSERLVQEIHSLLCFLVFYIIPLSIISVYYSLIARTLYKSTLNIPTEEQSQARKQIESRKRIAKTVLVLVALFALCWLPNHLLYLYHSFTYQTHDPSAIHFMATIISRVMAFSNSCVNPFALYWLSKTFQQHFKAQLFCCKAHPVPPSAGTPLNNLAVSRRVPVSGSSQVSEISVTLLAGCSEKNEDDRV

IC50 [1]: 0.15 nM | Ki [2]: > 1000 nM | IC50 [3]: 0.14 nM | IC50 [4]: 0.17 nM | IC50 [5]: 0.18 nM | IC50 [6]: 0.28 nM | IC50 [7]: 0.54 nM
Binder: APLQPGGSPALTKIYPRGSHWAVGHLM (ends and bridges not checked) [gastrin-releasing peptide, unlabeled ligand peptide of the radioligand binding assays]
